This passage reports IC50 of rGRFT on SARS-CoV-2 (Ank2, Wuhan like) infection of Vero E6 cells, cytopathic effect reading; rGRFT from 6 uM to 15.4 pM mixed with infectious particles results from PMC9017247.

For this assay, the target named is SARS-CoV-2 viral particles (spike protein as shown on the whole virus) (SARS-CoV-2).

As for “recombinant griffithsin lectin protein (rGRFT) (from UniProt P84801 1-121) (natural protein)”, the IC50 of rGRFT on SARS-CoV-2 (Ank2, Wuhan like) infection of Vero E6 cells, cytopathic effect reading; rGRFT from 6 uM to 15.4 pM mixed with infectious particles is 33.2 nM.
